According to publication PMC12846365:

How the values were obtained:
[1] = target: 3 plasmid ICs (as tested with N6); experiment: native gel or EMSA
[2] = target: 48d.cl IC, fusion version (gpCore + 48d heavy chain fusion, Fab-Fab-crosslinked K126C) (HIV-1 strain BG505); experiment: native gel or EMSA
wtA32 = experiment: not stated; KD of wtA32 in Table 1, no footnote and no method told
2mutVRC01 = experiment: SPR; OpenSPR-XT; C-terminally Strep-tagged antibody immobilised on Strep-Tactin XT over biotin sensor/streptavidin/biotinylated Strep-Tag peptide; analyte monovalent gpCore or ICs; 1:1 fit model; apparent kinetic values
3mutA32 = experiment: as above
7mutVRC01 = experiment: as above
[3] = target: GTi divalent immunogen, Fab-Fab-crosslinked version (HIV-1 strain BG505); experiment: native gel or EMSA
[4] = target: GTii divalent immunogen, Fab-Fab-crosslinked version (HIV-1 strain BG505); experiment: native gel or EMSA
[5] = target: GTiii divalent immunogen, Fab-Fab-crosslinked version (HIV-1 strain BG505); experiment: native gel or EMSA

2mutVRC01, sequence (light, as listed by the source, chain 2 of 2, other chains not shown): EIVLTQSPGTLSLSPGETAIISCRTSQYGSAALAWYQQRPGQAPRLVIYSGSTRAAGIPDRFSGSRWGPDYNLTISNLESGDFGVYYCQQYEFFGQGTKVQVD
7mutVRC01, sequence (heavy, as listed by the source, chain 1 of 2): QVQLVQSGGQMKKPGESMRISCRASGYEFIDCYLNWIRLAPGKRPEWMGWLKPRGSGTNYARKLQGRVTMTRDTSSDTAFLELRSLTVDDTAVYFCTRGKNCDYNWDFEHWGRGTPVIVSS
7mutVRC01, sequence (light, as listed by the source, chain 2 of 2): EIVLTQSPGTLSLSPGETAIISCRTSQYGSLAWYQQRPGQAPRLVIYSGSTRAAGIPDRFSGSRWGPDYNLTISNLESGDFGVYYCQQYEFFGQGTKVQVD
3mutA32, sequence (heavy, as listed by the source, chain 1 of 2): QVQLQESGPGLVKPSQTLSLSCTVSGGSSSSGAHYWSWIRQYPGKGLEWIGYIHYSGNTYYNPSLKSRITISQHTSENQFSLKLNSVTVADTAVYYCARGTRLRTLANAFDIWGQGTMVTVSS
3mutA32, sequence (light, as listed by the source, chain 2 of 2): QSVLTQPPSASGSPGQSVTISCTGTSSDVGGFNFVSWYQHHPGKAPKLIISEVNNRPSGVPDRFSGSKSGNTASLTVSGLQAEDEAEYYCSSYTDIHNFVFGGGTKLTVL
wtA32, sequence (heavy, as listed by the source, chain 1 of 2): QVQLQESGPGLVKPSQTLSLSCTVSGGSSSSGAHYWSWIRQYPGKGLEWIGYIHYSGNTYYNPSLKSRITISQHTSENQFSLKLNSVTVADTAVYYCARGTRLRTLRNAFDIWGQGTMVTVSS
wtA32, sequence (light, as listed by the source, chain 2 of 2): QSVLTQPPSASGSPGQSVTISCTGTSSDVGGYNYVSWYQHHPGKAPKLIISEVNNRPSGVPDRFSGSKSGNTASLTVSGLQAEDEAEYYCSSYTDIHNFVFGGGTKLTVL

N6 (antibody)
stoichiometry N [1]: 1 | stoichiometry N [2]: 1

gpCore (core gp120 of strain BG505), monovalent (domain or fragment)
Kd (wtA32): 0.0004 µM | Kd (2mutVRC01): 0.2 µM | Kd (3mutA32): 0.2 µM | Kd (7mutVRC01): 7 µM

monomeric VRC01 IgM unmutated common ancestor (UCA) (antibody)
Kd [3]: 0.8 to 1 µM | Kd [4]: 0.06 µM | Kd [5]: 0.025 µM
